Laboratory results from article PMC2712996.

Target: Rabbit skeletal muscle actin (F-actin) (rabbit) (UniProt P68135)
Experiment: co-sedimentation

percent pelleted with F-actin: 41%
Substance: GST-Cno (aa 1,560–2,051) (domain or fragment)
